Results published in the DeepSol protein solubility set.

Experiment: soluble on expression in E. coli; label from the status in PepcDB or PDB records
For “MSLFRFMKYKLFIDFEFNILDDNKNKPKEYNGAELISIGGILVDNEFNTIDNYYSLVKPKYNKILSNKCKNLTKLNQLDINNAPNLLYVMDDFYKWFCKFDDVTIYNWGDFDITGLLTSFRVYKYTGKCLELFNMMIDIQPFISQHITYNNRILSKQISLLNMKKIFSVEGDIKHNSLSDAVDLMNVCKCFFFNSPKNIDILEELYNKLPALKTEGHHHHHH”, the “soluble on expression in E. coli” value was “soluble”. For “MPQIYFSAAERRPKFVMKTGLSATEKNEVIKAAYRQIFERDITRAYSLSISDLESKVKNGDISMKEFVRRLAKSPLYQKQFYQPFINSRVIELAFRHILGRGPSSREEVQKYFSIISNGGLPALVDALVDSAEYSDYFGEETVPYLRGLEHHHHHH”, the “soluble on expression in E. coli” value was “soluble”. For “MSFVVIIPARYASTRLPGKPLVDINGKPMIVHVLERARESGAERIIVATDHEDVARAVEAAGGEVCMTRADHQSGTERLAEVVEKCAFSDDTVIVNVQGDEPMIPATIIRQVADNLAQRQVGMATLAVPIHNAEEAFNPNAVKVVLDAEGYALYFSRATIPWDRDRFAEGLETVGDNFLRHLGIYGYRAGFIRRYVNWQPSPLEHIEMLEQLRVLWYGEKIHVAVAQEVPGTGVDTPEDLERVRAEMRGSHHHHHH”, the “soluble on expression in E. coli” value was “soluble”. With “PAVKPVIGEVTPNSIVAEAGIESGMELKAVSGIKTPDWESVNMGLISHIGDDAMTLTLTSDSEVGAEVTKTLDLRDWKFDPETESAMHSLGFAPYTPEIYRVIKQVSEDGAAAKAGVLPEDEIIAIGGEPINDWKQVVDAVRSNPNTPIELTVLRRGIEQSLTLTPDSRELANKQVVGFAGIAPEVAEWPESYRFELQFGVFESIGKAVDKTGQVIGLTVSMLKKLIVGDVGLNNLSGPISIAKGAGATADYGL” the “soluble on expression in E. coli” value was “not soluble”. In the case of “MKISEIENTFKEKLSVSLKKQEDTIRRQSLAENQGKLEVMENMNRVLSEAIESLQSQHSKDTEIIKAGLRTKGDRVTYVDNLRVEKKALEETVSQLRSENDKLKKIIRGESTNKPVLRSRTTKP”, the “soluble on expression in E. coli” value is reported as “not soluble”. With “MLRRDFLKLLAAATTIAATGPVMAACSRDDNSATSGKAATDTIRIAAIGGPGEGLNINEAMSTATWAAMYAVYESLVIAGDSAPAFQLAKSVEPNKDATMWTVTLRDAPLFSDGSPVTAADVVASLKVVAKNPMRGMTYADVDVDKLKAIDDSTVEIHLTRPRADFVDAVLGVNSLVYKNGDPGTTIGSGPYVVESGDSGQGWKLAANEHFPTDRRISQSLEIQVIADADARLRAVDSGAVDLAMDLPATAARSLKNAQAWIPGPADSKALLFVLNTAVAPFNDAEVRRAVKISLDRKAMVDVALDGAGTVGADIPGFGFKDYPEGISEVRRDLDAARQIFKDKGIKELTLVTADFTPGMNDGADIAAKQLADAGVKVTVEKRDPTTYFADMAALRALPFFASYIVNRSLQSALPFMTGSHAMFNLSGFGTSGDWDKRLAAAQAETNDSQRAALLKKLAVEMQRDGGDVLWGYANEVHGRADGIPDVPVSQSVPVPTTK” the “soluble on expression in E. coli” value was “not soluble”. With “MDKDCEMKRTTLDSPLGKLELSGCEQGLHEIKLLGKGTSAADAVEVPAPAAVLGGPEPLMQCTAWLNAYFHQPEAIEEFPVPALHHPVFQQESFTRQVLWKLLKVVKFGEVISYQQLAALAGNPKAARAVGGAMRGNPVPILIPCHRVVCSSGAVGNYSGGLAVKEWLLAHEGHRLGKPGLGGSSGLAGAWLKGAGATSGSPPAGRN” the “soluble on expression in E. coli” value was “soluble”. With “MAHHHHHHMCATSKENTPEFYKKYVKDIIDRIEDNARREFEAIWRDHESHPGMSKTLISDTLSEKNVKVRANILASDVFKNKKLVRYILFHYTPKTLLEVVPVDELMNRVPIAYQHAICAMWLASEYVYSTGIDSNEFDFFSFMSAHIERASAMAKEQSR” the “soluble on expression in E. coli” value was “soluble”. In the case of “MAHHHHHHMAVENMLGKLKQNPGDYYNSVSALFFHRPYNMMPIQAMSFLYVRGLARATSAEHKKYFEELCSKAKVEPAAVQTELDVIPDYFGMIESGQEPKDVFGATNKVAKAVRADKDFSSLLSRKMSLGSSAMANFGNLYTASLPCWIAAGLEEAYNKKQDITNHPMVMVGYGSGDASEAIPIVPVKGWEEAASKINVAAALEKPVNLTREQYEGMHNGSLKSDLAAGNRQKEFVVAHIGSRNDMAFQDIGIEYYQFVH”, the “soluble on expression in E. coli” value is reported as “not soluble”. For “MNAACPDCGLKFQCLCSAVPSFHAPFQLSLLTHDNEWQRETNTGRWLVKSMAECQAYTWSRVAANTELQARLTQPNARSFLVYPSEESVELTDALRSLREDEIAHFIVLDATWQEARKMERKSPWLADVPRVHLTTDHVSAYRLRRNQQPGNLCTLEVGLMLLRHFNAEASAEALEQFYHYSMNAFKADKSGHRWIERLEHHHHHH”, the “soluble on expression in E. coli” value was “not soluble”. For “MGSDKIHHHHHHMMNNLKRILKNPRLILIFILSRYCHWIDDKTYLCIMYFIYFGKLLHLNSPRTFNEKLQWLKLYDRHPEYTQMVDKATVKEYVASIIGEKYIIPTLGVWENFDDIDFENIPSSFVLKCTHDSGGVVICENKNLFDVEKARSKLLKSMKKNYYYVGREYPYKDIKPRIIAEKYMVDESHIELKDYKIHLFHGIPNFIQVDFDRFTSHHRNLYTIDWKPLGKAIKYPAVYEREIDKPIVLDEMLELAMKLAFNIPYVRADFYCIGNKVYFGELTFYHGSGFETFSPKSFDEELGALIKLS”, the “soluble on expression in E. coli” value was “not soluble”. With “MAKLDFHIVKRIREQIANGGTRVALKHKVAGAWQGITWEQFGQQVDTLSLALLAQGLGVQDKIGIFSNNMPQWTIADFAALQLRGVTVPIYPTNTAAQSAYIIDNADVKVLFVGEQPQFDAAVSIFEQCEQLELIVAMSDDIELGDHDFAISWKDFVAKGDTSHQAELDERLEQAKVDDLLTLIYTSGTTGQPKGVMLDYGNIAAQLEGHDQRLSLSQDDVSLCFLPLSHVFERAWTFYVLYKGATNCYLQDTMQVRDALSEVRPTVMCAVPRFYEKIFSAIHEKVSRAPIHRKIMFTWAVNMGAKMALCHQEKRKPSMMLRKAHA” the “soluble on expression in E. coli” value was “not soluble”. For “MAHAGRTGYDNREIVMKYIHYKLSQRGYEWDAGDDVEENRTEAPEGTESEVVHLTLRQAGDDFSRRYRRDFAEMSSQLHLTPFTARGRFATVVEELFRDGVNWGRIVAFFEFGGVMCVESVNREMSPLVDNIALWMTEYLNRHLHTWIQDNGGWDAFVELYGPSMR”, the “soluble on expression in E. coli” value was “soluble”. With “MKTPTRVSFEKKIHTPPSGDRDAERSPPKKFLRGLSGKVFRKTPEFKKQQMPTFGYIEESQFTPNLGLMMSKRGNIPKPLNLSKPISPPPSLKKTAGSVASGFSKTGQLSALQSPVNITSSNKYNIKATNLTTSLLRESISDSTTMCDTLSDINLTVMDEDYRIDGDSYYEEDSPTFMISLERNIKKCNSQFSPKRYIGEKCLICEESISSTFTGEKVVESTCSHTSHYNCYLMLFETLYFQGKFPECKICGEVSKPKDKDIVPEMVSKLLTGAGAHDDGPSSNMQQQWIDLKTARSFTGEFPQFTPQEQLIRTADISCDGFRTPRLSNSNQFEAVSYLDSPFLNSPFVNKMATTDPFDLSDDEKLDCDDEIDESAAEVWFSKTGGEHVMVSVKFQEMRTSDDLGVLQDVNHVDHEELEEREKEWKKKIDQYIETNVDKDSEFGSLILFDKLMYSDDGEQWVDNNLVILFSKFLVLFDFEEMKILGKIPRDQFYQVIKFNEDVLLCSLKSTNIPEIYLRFNENCEKWLLPKWKYCLENSSLETLPLSEIVSTVKELSHVNIIGALGAPPDVISAQSHDSRLPWKRLHSDTPLKLIVCLNLSHADGELYRKRVLKSVHQILDGLNTDDLLGIVVVGRDGSGVVGPFGTFIGMINKNWDGWTTFLDNLEVVNPNVFRDEKQQYKVTLQTCERLASTSAYVDTDDHIATGYAKQILVLNGSDVVDIEHDQKLKKAFDQLSYHWRYEISQRRMTPLNASIKQFLEELHTKRYLDVTLRLPQATFEQVYLGDMAAGEQKTRLIMDEHPHSSLIEIEYFDLVKQQRIHQTLEVPNL” the “soluble on expression in E. coli” value was “not soluble”. For “MSVLQKIADIEAEMARTQKNKATNAHLGILKAKLAKLRRDLITPKGGGGGPGEGFDVAKTGDARIGFVGFPSVGKSTLLCNLAGVFSEVAAYEFTTLTTVPGVIRYKGAKIQLLDLPGIIEGAKDGKGRGKQVIAVARTCSLILMVLDVMKPLQHKKLLEYELEGFGIRLNKQPPNIGYKRKEKGGINLTMLVPQSELDLDLVKSILAEYRIHNADITLRYDATSEDLIDVIEGNRIYIPCIYVLNKIDQISIEELDIIYRIPHTVPISAHHKWNFDDLLEKVWEYLNLIRIYTKPKGQLPDYSQPIVLNAERKSIEDLCTKIHKSLQKDFKCALVWGASAKHNPQRVGRDHVLIDEDVVQVIKKV”, the “soluble on expression in E. coli” value was “not soluble”. In the case of “MKQEETLTKVKVAEVTHSIFYAPLYVAESKGFFKEEGLDVDVNTTWGGDKTMTSLLSNGSDIALVGSETSIYVEAQGAKDPVINFAQLTQTDGTFLVAREDVEHFDWDQLKGKTFLGQRKGGMPQMVGEYVLNKHKIDPHKDIDLIQNIDFANIANAFASGTGEYVQLFEPQLLSLRKKASAISWLHSEKNQERFLIRLLWRNKAILEHHHHHH”, the “soluble on expression in E. coli” value is reported as “not soluble”. For “MGSDKIHHHHHHMTPAQLKDELIAYSKTIGIDKIGFASADPFLTLKERLQTQQALGYQSGFEEPDIDKRVYPEKILPKARSIISIALAYPSKMKNPPKSKKGERRGVFCRASWGKDYHDILRDRLKKLEDFLLERVPDMKVLSMVDTGALSDRAVAERAGIGWSGKNCGVITPEFGSYVYLGDLVTTIPFPPDIPLTDQCGTCNKCVDACPTGALIQGGQLDSQKCIAFLTQTKGFLPEKYRKKLGNRLYGCDTCQQVCPANKGKNFHFHEEMEPDPEIAKPKLIPLLTMSNREFKEKFGHVSGSWRGKKPIQRNAILALAHFKEEAALPILADLLRQDPRPVIRGTAGWALGKIGGPEVETWLKDALKREKDEDVRAEISRGLEILAYGDSGNGKETEDSIR”, the “soluble on expression in E. coli” value was “not soluble”. In the case of “PSPREQLMESIRKGKELKQSRPPLKKASDRQLGPPRMCEPSPREQLMESIRKGKELKQSRPPLKKASDRQLGPPRMCEPSPREQLMESIRKGKELKQA”, the “soluble on expression in E. coli” value is reported as “soluble”. With “SLREMKHLRSIEQEIKMSIPSQEVPTIEDVVEKQKESWKKQIAHRIEKGSNQKHLFEQMTEELMAEYDSKEVISALLQLNYAMDTAPEDAGYSFGETGGAKGMVRFFINVGRNVNMSPKILVEEIAELVGIPGKAIGRIDIFEKFTFVEVPEEVAPFVYEALRYSRINGARVNLEPAKPRPKRESQRRTFQK” the “soluble on expression in E. coli” value was “soluble”. For “FVAHSSGQEVKLDKAPIDRADKESLQRGAKGFVEYCLTCHGANFMRFNRHHDIGMSEDDIRADLIHTGQKTGDLMEAAMRKKEAEGWFGVVPPDLSVIARARGADWLYTYLRTFYQDTSTYSGWNNLIFDKVAMPHVLHHLQGWQVLEPGTGNLVQTKPGTMTKEEYDRFVADLVNYMVYLGEP”, the “soluble on expression in E. coli” value was “not soluble”. For “MGSDKIHHHHHHMTQLSNKTKDSCNWDSIVIGSGLGGLVTASQLASKGAKVLVLEQYKIPGGSGGSFKRKGFTFDVGASMIFGFGNKGYTNLLTRALKDVGQKCETIPDPTQLAYHLPNQLEISVDRDYQKFITKLINLFPHEEKGIKHFYETCWDVFNCLDSMPLLSIEDPAYLMKVFFKSPLSCLGLARWLPVNAGDVAMRYIKDPDLLRFIDIECFCWSVMPANLTPMINAGMVFSDRHYGGINYPKGGVGVIAEKLVKGIKNLGGEIRYKSRVKKIIFEKGNAIGVSLENDEEIFSKTVVSNATRWDTFGGQGIKSPLVATENKPTSEKKWENRYIPSPSFLSLHLGVNVDSIPANTHCHHLLLDKWEEMDKEQGVTFVSIPTLLDPTLAPSGSHIVHAFTPSSIDNWDGLSNKEYLAKKKEDGDKLISKLERLFPNLSQNILHKEIGSPRTHKRFLARNKGSYGPIPSMRLPGLLPMPFNTTKINGLYCVGDSCFPGQGLNAVAFSGYACAHKIGTKLGMNKWELPE”, the “soluble on expression in E. coli” value was “not soluble”. For “MGSDKIHHHHHHMQKDKIKTDWSHGENPEDYKCCVAFHGHDCPGLAVGYRAAQAALAALCGERAEDEELVAIVETDACGVDALQVLTGCTFGKGNLIYQDHGKHVFTLIERKSGRGVRVALKAGVMEMNERHLTLMEKVHQMTATPHETAEFWKIHSQKALEILQKPIETLFNIQPINRTLPPKARREPSRLCARCGEPAMGSKLVVLDGREVCRDCLQPEER”, the “soluble on expression in E. coli” value was “not soluble”.
